In patent US20200325208A1:
Like-named read-outs stand apart in the source and are kept apart here.

Tests used:
Assay in all cases: ELISA, antigen captured by anti-His antibody on plate, HRP anti-IgG Fc detection
[1] = target: Human VEGF121/VEGF-A protein (human VEGF 121 isoform) with 6-His tag (human) (UniProt P15692)
[2] = target: Human VEGF121/VEGF-A protein (human VEGF 121 isoform) with 6-His tag (human) (UniProt P15692); remark: listed apart in the source
[3] = target: Human VEGF121/VEGF-A protein (human VEGF 121 isoform) with 6-His tag (human) (UniProt P15692); remark: listed apart in the source
[4] = target: Human VEGF121/VEGF-A protein (human VEGF 121 isoform) with 6-His tag (human) (UniProt P15692); remark: listed apart in the source

Chain of Aflibercept (VEGFR-Fc) (Fc fusion) (chain): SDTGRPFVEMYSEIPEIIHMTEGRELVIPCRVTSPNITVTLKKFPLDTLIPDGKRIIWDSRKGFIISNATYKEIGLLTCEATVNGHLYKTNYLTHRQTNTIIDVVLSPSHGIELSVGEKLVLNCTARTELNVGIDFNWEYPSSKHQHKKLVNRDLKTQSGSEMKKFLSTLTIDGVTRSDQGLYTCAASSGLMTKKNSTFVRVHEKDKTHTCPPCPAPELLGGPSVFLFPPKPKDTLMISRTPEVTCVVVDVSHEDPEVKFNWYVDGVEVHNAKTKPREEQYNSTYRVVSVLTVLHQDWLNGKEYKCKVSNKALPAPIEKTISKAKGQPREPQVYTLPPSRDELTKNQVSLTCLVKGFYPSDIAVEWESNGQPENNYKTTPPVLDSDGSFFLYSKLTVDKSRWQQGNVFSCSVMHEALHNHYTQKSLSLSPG
Chain of Human VEGF121/VEGF-A protein (human VEGF 121 isoform) with 6-His tag (human) (P15692 other isoform, or with tags, fused parts or gaps limits assumed): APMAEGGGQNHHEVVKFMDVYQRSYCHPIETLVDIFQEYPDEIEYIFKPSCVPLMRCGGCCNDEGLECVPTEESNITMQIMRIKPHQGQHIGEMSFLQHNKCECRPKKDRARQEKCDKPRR

Aflibercept (VEGFR-Fc) (Fc fusion)
EC50 [1]: 12.2 nM | EC50 [2]: 15.3 nM | EC50 [3]: 10.5 nM | EC50 [4]: 21.4 nM
